# Results published in the DeepSol protein solubility set.
# Assay: soluble on expression in E. coli; label from the status in PepcDB or PDB records
row,Sequence,soluble on expression in E. coli
1,RQEQRRTDHELREQLHFRQALIDAIPAPIYFMDTTGIFLGCNKAFEAFSGHTQDEIVGKTIYDLMPPSLAKHTDSADRELFEHGGIQIYESVISFADGALHDVIFYKATFTTTEKNIGGLVGTILDIT,not soluble
2,AHHHHHHGSKILYPTDFSEVSQKALTECVPSIILGIGEGSELILLHVVDITASEIGALELAEVDKEELNNLASQLREKGIKVKPIVRIGIPSLEISEVAKEENVDLIIIPSKGENILRQMLLGSTASNLARITHKPVLLLRYEVENGEIKSLQDCSRIFEKPLVALDLSKCSEKIIETIKDLPGVREAVLFHVVDYGKVEELENNIKNAKEKLSKYGKLLPWKTKIEVQAGIASKGIIGAAIDNNVTLVVIGKKGRSVLKDLLLGSTAERVIRDCKLPTLLIPCE,not soluble
3,MGSDKIHHHHHHMSKKFNCSIKRIRFDENYRPADSTRLTTNFANLARGEHREENLRKTLRMINNRFNALAHWDNPTADRYSVEVDIISIDMDVAGNGHTFPVIETLKTTIVDHKENTRIDGMMGNSFSSYVRDYDFSVVLPEHFNNHSTSPVSAPPEDFGDLHGKLFQYLLNSEAYKAQFNNKLVICLSVSTSKTYHRTTNQHPVLGVEYKQDDYSLTDDYFHKMGLTVRYFMPANSAAPLAFYFAGDLLTDYTDLELISAISTMETFQKIYRPEIYNANATAGEVYQPSLKYQDYSLTQIVYDRAERSQMAVKQGKFTEEQFIKPYQAILEEWAASYDVASKKNLHQ,not soluble
4,PEQDIVYISASSGSTGVPTASPFTQSDFDGWIDYEARQFWSSGMRPSDRYVHSLNFSLFIGGPCVLGAQKLGALTIHAGTIPSDRLLQILRQFQATVIWTTPSYAWYLGETAIKEGYDLRKDLAVRRIFVAGEPGGSIPETRNRIEQLWGASVYDYYGLSDIFGSCAGMCEQKE,not soluble
5,VDVRAIMTPPAHQDGGKHDVDARGPCGLTPLMIAAVRGGGLDTGEDIENNEDSTAQVISDLLAQGAELNATMDKTGETSLHLAARFARADAAKRLLDAGADANCQDNTGRTPLHAAVAADAMGVFQILLRNRATNLNARMHDGTTPLILAARLAIEGMVEDLITADADINAADNSGKTALHWAAAVNNTEAVNILLMHHANRDAQDDKDETPLFLAAREGSYEACKALLDNFANREITDHMDRLPRDVASERLHHDIVRLLDEHVPRSPQMLSMTPQAMIGSPPPGQQQPQLITQPTVISAGNGGNNGNGNASGKQSNQT,soluble
6,MGSDKIHHHHHHMNSVVNFRDIGGFPTQQGTVVKTGYFFRSGELVNVAQADQQKLVEDYQIKRIYDFRSAAETQERPDDSIQGTNYLHIDILADIQAQTASLEGMLKTVGSPDEAMDMAYKEMVLSNSGRKGYQTFFENFLSYPQEAILFHCFAGKDRTGIGAALILSALGVEHSYILEDYLKTNEQRKTANEQIIAQYQANGTPLAEIQQLETLLYVKKEYLATALQAIEKEFGSVEGYLKEGLGLPLSAKKDMLSLYTKS,not soluble
7,SNVFARSSVLAAEMIDVFDRTHTEKELVFQSKELCRDFIHSRITREGLSWSKVELDLPEPRGVLVDVSVVLLKLGDELECMRPYVYRNIAKQLNISVSVEAVVSDAFLSVATEVIAMGITWGKVVAIYAVAAGLAVDCVRLGHPVMVHTIVDSLGEFVRRSLVPWLKKRGGWVDILKCVVNMDSRAHVHWLSTAVLTWREFIKTMYVYLTK,soluble
8,MAMSQQDLPTLFYSGKSNSAVPIISESELQTITAEPWLEISKKGLQLEGLNFDRQGQLFLLDVFEGNIFKINPETKEIKRPFVSHKANPAAIKIHKDGRLFVCYLGDFKSTGGIFAATENGDNLQDIIEDLSTAYCIDDMVFDSKGGFYFTDFRGYSTNPLGGVYYVSPDFRTVTPIIQNISVANGIALSTDEKVLWVTETTANRLHRIALEDDGVTIQPFGATIPYYFTGHEGPDSCCIDSDDNLYVAMYGQGRVLVFNKRGYPIGQILIPGRDEGHMLRSTHPQFIPGTNQLIICSNDIEMGGGSMLYTVNGFAKGHQSFQFQLEHHHHHH,soluble
9,MATLFIADLHLQTEEPAITAGFLRFLQGEARQADALYILGDLFEAWIGDDDPNPLHQQIASAIKAVVDAGVPCYFIHGNRDFLVGQRFARQSGMILLAEEERLDLYGREVLIMHGDTLCTDDQGYLAFRAKVHTPWIQRLFLALPLFIRHRIAARMRADSKAANSSKSMEIMDVNPQAVVDAMERHHVQWLIHGHTHRPAVHELQANGQPAWRVVLGAWHSEGSMVKVTPDDVELIHFPF,not soluble
10,MGSDKIHHHHHHMISQRALEAFRAVMTTGTVSAAAEELNVSQPAVSRLVRDLEEYTQLRLFSRHGGRIVATREAHEFNAEIERSFLGLRVIEQAAREIRQGRRGTVSVAVMPALAQTILPDVMADVRVSHPDFRLELLAMPTQSIVRQVATRQCPLGLTSPTHHANEVDVVKSGSLPYRCVMPDGHPLAAYEIIRLQDLSGMEFINYTDATATGRMLDHRFAHMTTPPVVNARAPISPVIAALVRKGLGVAILDPFTAQDHVNRGGVSRPVQIDEEFHWSFIKPYGEKLSSDLMAVISIFEDLSKNYA,not soluble
11,SIEFSTAITRQIVLDTETTGMNQIGAHYEGHKIIEIGAVEVVNRRLTGNNFHVYLKPDRLVDPEAFGVHGIADEFLLDKPTFAEVADEFMDYIRGAELVIHNAAFDIGFMDYEFSLLKRDIPKTNTFCKVTDSLAVARKMFPGKRNSLDALCARYEIDNSKRTLHGALLDAQILAEVYLAMTGGQTSMATRESG,soluble
12,MGSDKIHHHHHHMLRKDIGIDLGTANTLVFLRGKGIVVNEPSVIAIDSTTGEILKVGLEAKNMIGKTPATIKAIRPMRDGVIADYTVALVMLRYFINKAKGGMNLFKPRVVIGVPIGITDVERRAILDAGLEAGASKVFLIEEPMAAAIGSNLNVEEPSGNMVVDIGGGTTEVAVISLGSIVTWESIRIAGDEMDEAIVQYVRETYRVAIGERTAERVKIEIGNVFPSKENDELETTVSGIDLSTGLPRKLTLKGGEVREALRSVVVAIVESVRTTLEKTPPELVSDIIERGIFLTGGGSLLRGLDTLLQKETGISVIRSEEPLTAVAKGAGMVLDKVNILKKLQGAG,not soluble
13,MGKKYEIFLNENEHSLITPKVSFKEILRYYYLYPKNAIPSFKLPFFKPDLSGFSTPHITWLGHSSLFISFKEYKILIDPIFNTHASPISFINKAFKNAPVYNINDFNEIFAVIITHSHFDHLDAKSVKALKDKAKFFITPLKVGNYLKSYGVSEKKIIELDWWSGIEFGDLKIMATPAQHSSSRGDGKNKTLWASFVMEFLSVDKRVFFSADGGYFTHFKKIGEYFGSFDLACLESGQFNIAWPYSHSFPEQILKEAKDLNAKAVMPIHWGRFLAGTHAWNEVVKFLYENLDLPLITPKMGEAYEVGAKLEHHHHHH,soluble
14,MAHHHHHHMRTPVVGAGVAPLEPAPLEASSAAGEDGGEAGVGDEGTDRERFSKMWMYCLQQMQGHEVGMLMDMMPPDIQELYSDKLSDEYLLDEHDNMDKGVHALRAAQKMVEELTSEQLFHIEEFLAGTDAFNAEANRCHGKAHHPRGDGDNLEEEEEAGGDDDEDLFMHRDEGMGSDEEEWLLEQMIAAGDKTSAAAK,not soluble
15,MAGDPNSMTVSHHNASTARFYALRLLPGQEVFSQLHAFVQQNQLRAAWIAGCTGSLTDVALRYAGQEATTSLTGTFEVISLNGTLELTGEHLHLAVSDPYGVMLGGHMMPGCTVRTTLELVIGELPALTFSRQPCAISGYDELHISSRLEHHHHHH,soluble
16,MGSDKIHHHHHHMSNQLENAKNLYLRGIRDGEIKEVHENYMGASYTQHSTGVPDEKEGFAAFFEDFFKRNPKREINIVRAIEDGNFVFVHVHQKLNDGEAEWVTADIFRSDENGRIVEHWDVIDAYPKTIDQTDPIYADFELTDLDKTEDNKKIVRRFLVDVFQNGEIDKFDDYVAANLIQHNQEIAQGGAAYKDYLVDKAVNYDFVFKVMGQGDYVVAYSKVWIAGQDYAHFDIYRLKDGKIVEHWDNKEVMPDKKDLTNLGKF,not soluble
17,MRDYATTAAGFDLQRTAAATLSGTLQALNACVECCDRHALPGRIALFWEGKDGSRASYTFSELKALSGRFANFLQAQGVRPGDCVAGLLPRTPELLVTILGAWRLGAVYQPLFTAFGPKAIEHRVATAGSKVLVTDAANRDKLDELADPPLAVTVGGPKGQGIRRGDFSFWAELERYPAEFEPVPRSGEDPFLMMFTSGTTGLAKPVPVPLKAILAFVGYLREAVDLRPEDAFWNLADPGWAYGLYYAVAGPLAMGHPTTFYEGPFSVESTCRIIRDYGITNLAGSPTAYRLLMAAGAAAETALKGRLRAVSSAGEPLTPEVIRWFADRLGTTIHDHYGQTELGMVLCNHHALAHPVRVGAAGFACPGHRVVVLDDDLNELPPGQPGILALDRRRSPLMWFPGYQGLETAAFVGDYYLSGDTVELNEDGSISFVGRADDVITTSGYRVGPFDVESALIEHPAVMEAAVIGKPDPERTELVKAFVVLCAGHRPTPELADALQRYVRQRLSAHAYPREIEFLEELPKTPSGKIQRFLLRNQEIARQREAAPRAAAAN,not soluble
18,MMIMERHYTLKEASKILGVSIKTLQRWDKAGKIKCIRTLGGKRRVPESEIKRILGIKDKEQRKIIGYARVSFNAQKDDLERQIQLIKSYAEENGWDIQILKDIGSGLNEKRKNYKKLLKMVMNRKVEKVIIAYPDRLTRFGFETLKEFFKSYGTEIVIINKKHKTPQEELVEDLITIVSHFAGKLYGMHSHKYKKLTKTVKEIVREEDAKEKE,not soluble
19,MTGITVSDSAARRIAKILDSEPGKTALRVSVEGGGCSGFSYKYDLVDAQTEDDIVIEKLGARVLIDSISVPYMDGSEIDFVDDLMGQSFQIRNPNATASCGCGTSFAILEHHHHHH,soluble
20,MRTPLSSVSPQLVQRFHELGFTPSSIRNFLGRPGFAAISRGEPASVLYAMRENEDSDFYPLIATFILHRPVAAEALHRVLGGSLTDQLTETGVLEIVDASKAYLTAKIDIRWLELEDDLFWVFSDTDASMIADHVPGKDHVLGVGAASLSLLATTPRSPVNSVLDLGTGSGVQALGQLRHARSVTATDVHPRALDFAEATFAGAHFDVEILDGSWFEPIKNRKFDRIVANPPFVVGPPEIEHVYRDSGLDLDGATETVVRGAVDHLHSNGTAHLLGSWVHKNGESVASRVAEWIPSHGVIAWFLQRDTVDPIQYVNTWLRDESIDPRSEIGFKRTLSWLDHFSRAKVEAVGFGYVAIQRVDDSIPSEVYFEELTHQVDDYLGDEIEEFFVRVDWLREKNRDGIAQSQFYLRPGVAKESVSVTDIDSGMGFTHLKYRITRTEGPRWSHEVDEHIVSVIAGLHPEGLTLEDVATLYAVSNGLDDESFVDAIIDPVVALVRHGILLPAEITKGW,soluble
21,MIITKNISLPELYQEWLDLKIMPSNRSDVTKKKYLSRKVTLEKLFGDKPISQIRPSEYQRIMNNYGQRVSRNFLGRLNTGVKQSLQMAIADKVMIEDFTQNVELFSTVKLEHHHHHH,soluble
22,MENKMVEYRKKFGLSQEKLAEKLGVSRQTIISIEKGKYDPSLPLAFEIAKTFQTTIEHVFIYEGKEGEE,not soluble
23,MAHHHHHHSLEIRAFSKYRKRALSLVRGKVLEIGVGTGKNLPYYPKDVEVIGIDFSRNMLKKAEERRRKLRLENVTLLYMDAQDLEFEDNTFDTIVSTFVFCTVPDPIKGLKEAYRVLKPGGRAIFLEHMKSESKLLNVPLYLMEPFIRTLLGTSLLRETQRNIERAGFKIEKVENLFYDIVRLIIATKDEG,soluble
24,MRVLLIEKNSVLGGEIEKGLNVKGFMADVTESLEDGEYLMDIRNYDLVMVSDKNALSFVSRIKEKHSSIVVLVSSDNPTSEEEVHAFEQGADDYIAKPYRSIKALVARIEARLRFWGSNVIEIGDLTISPDEEKIIYKGREVEVKGKPFEVLTHLARHRDQIVSKEQLLDAIWEEPEMVTPNVIEVAINQIRQKMDKPLGISTVETVRRRGYRFCYPKPACEE,soluble
